{"source": "patent US20200261490A1", "about": "(AARHUS UNIVERSITET, published 2020)", "key": {"[1]": {"molecular_target": "T1, recombinant human stanniocalcin 1, C-terminally myc-his-tagged (human, UniProt P52823 34-247)", "test": "SPR (Biacore T200); PAPP-A captured by immobilised mAb 234-5, purified STC1 as analyte, global 1:1 Langmuir fit", "procedure": "(§1) Surface plasmon resonance experiments were carried out on a Biacore T200 (GE Healthcare). Using amine coupling, purified monoclonal antibody 234-5 was immobilized in flow cells (FC) 3 and 4 of a Series S CM5 Sensor Chip (GE Healthcare). To reach a coupling density of 5,000 response units (RU), the antibody was diluted to 30 μg ml⁻¹ in 10 mM sodium acetate, pH 4.75. Remaining active groups were blocked by a 7 min injection of 1 M ethanolamine, pH 8.0. […] The association phase was 180 s, followed by a 1,000 s dissociation phase. At the end of each binding cycle, both surfaces were regenerated by a 40 s injection of 0.1 M glycine, pH 2.5, and 0.5 M guanidine hydrochloride. […] Binding analysis was performed at 25° C., and data were collected at a rate of 10 Hz. Recorded signals were subtracted the background signal, as determined by the response obtained from the reference cell. Global fitting of a 1:1 Langmuir model was performed, using the Biacore T200 Evaluation Software, version 1.0."}, "[2]": {"molecular_target": "T1, recombinant human stanniocalcin 1, …", "test": "SPR (Biacore T200), PAPP-A captured by immobilised mAb 234-5, STC1 injected at 0.20-6.26 nM, global 1:1 Langmuir fit", "procedure": "as §1"}}, "data": [{"binder": "recombinant human PAPP-A (pregnancy-associated plasma protein-A, pappalysin-1) (enzyme, Secreted from transfected HEK293T cells and used in culture medium; also called wt PAPP-A; huPAPP-A) EARGATEEPSPPSRALYFSGRGEQLRLRADLELPRDAFTLQVWLRAEGGQRSPAVITGLYDKCSYISRDRGWVVGIHTISDQDNKDPRYFFSLKTDRARQVTTINAHRSYLPGQWVYLAATYDGQFMKLYVNGAQVATSGEQVGGIFSPLTQKCKVLMLGGSALNHNYRGYIEHFSLWKVARTQREILSDMETHGAHTALPQLLLQENWDNVKHAWSPMKDGSSPKVEFSNAHGFLLDTSLEPPLCGQTLCDNTEVIASYNQLSSFRQPKVVRYRVVNLYEDDHKNPTVTREQVDFQHHQLAEAFKQYNISWELDVLEVSNSSLRRRLILANCDISKIGDENCDPECNHTLTGHDGGDCRHLRHPAFVKKQHNGVCDMDCNYERFNFDGGECCDPEITNVTQTCFDPDSPHRAYLDVNELKNILKLDGSTHLNIFFAKSSEEELAGVATWPWDKEALMHLGGIVLNPSFYGMPGHTHTMIHEIGHSLGLYHVFRGISEIQSCSDPCMETEPSFETGDLCNDTNPAPKHKSCGDPGPGNDTCGFHSFFNTPYNNFMSYADDDCTDSFTPNQVARMHCYLDLVYQGWQPSRKPAPVALAPQVLGHTTDSVTLEWFPPIDGHFFERELGSACHLCLEGRILVQYASNASSPMPCSPSGHWSPREAEGHPDVEQPCKSSVRTWSPNSAVNPHTVPPACPEPQGCYLELEFLYPLVPESLTIWVTFVSTDWDSSGAVNDIKLLAVSGKNISLGPQNVFCDVPLTIRLWDVGEEVYGIQIYTLDEHLEIDAAMLTSTADTPLCLQCKPLKYKVVRDPPLQMDVASILHLNRKFVDMDLNLGSVYQYWVITISGTEESEPSPAVTYIHGSGYCGDGIIQKDQGEQCDDMNKINGDGCSLFCRQEVSFNCIDEPSRCYFHDGDGVCEEFEQKTSIKDCGVYTPQGFLDQWASNASVSHQDQQCPGWVIIGQPAASQVCRTKVIDLSEGISQHAWYPCTISYPYSQLAQTTFWLRAYFSQPMVAAAVIVHLVTDGTYYGDQKQETISVQLLDTKDQSHDLGLHVLSCRNNPLIIPVVHDLSQPFYHSQAVRVSFSSPLVAISGVALRSFDNFDPVTLSSCQRGETYSPAEQSCVHFACEKTDCPELAVENASLNCSSSDRYHGAQCTVSCRTGYVLQIRRDDELIKSQTGPSVTVTCTEGKWNKQVACEPVDCSIPDHHQVYAASFSCPEGTTFGSQCSFQCRHPAQLKGNNSLLTCMEDGLWSFPEALCELMCLAPPPVPNADLQTARCRENKHKVGSFCKYKCKPGYHVPGSSRKSKKRAFKTQCTQDGSWQEGACVPVTCDPPPPKFHGLYQCTNGFQFNSECRIKCEDSDASQGLGSNVIHCRKDGTWNGSFHVCQEMQGQCSVPNELNSNLKLQCPDGYAIGSECATSCLDHNSESIILPMNVTVRDIPHWLNPTRVERVVCTAGLKWYPHPALIHCVKGCEPFMGDNYCDAINNRAFCNYDGGDCCTSTVKTKKVTPFPMSCDLQGDCACRDPQAQEHSRKDLRGYSHG", "values": [{"measurement": "Kd", "setting": "[1]", "value": 0.075, "unit": "nM"}, {"measurement": "Kd", "setting": "[2]", "value": 0.0749, "unit": "nM"}, {"measurement": "koff", "setting": "[2]", "value": 0.000208, "unit": "s⁻¹"}, {"measurement": "kon", "setting": "[2]", "value": "2.78e+06", "unit": "M⁻¹ s⁻¹"}]}]}
